# Reference: patent publication US20220163515
# What was measured:
# [1] = target: Pumby8_KD_4 (synthetic (from Homo sapiens Pumilio unit 6)) (UniProt Q14671); experiment: FP; details: 25 mM Tris-HCl pH 7.5, 0.5 mM EDTA, 50 mM KCl, 0.1 mg/mL BSA; active-fraction corrected
# [2] = target: Pumby8_KD_3 (synthetic (from Homo sapiens Pumilio unit 6)) (UniProt Q14671); experiment: FP; details: 25 mM Tris-HCl pH 7.5, 0.5 mM EDTA, 50 mM KCl, 0.1 mg/mL BSA; active-fraction corrected
# Chain of Pumby8_KD_3 (synthetic (from Homo sapiens Pumilio unit 6)) (Q14671 1028-1063): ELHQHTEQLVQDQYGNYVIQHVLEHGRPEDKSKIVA
# Chain of Pumby8_KD_4 (synthetic (from Homo sapiens Pumilio unit 6)) (Q14671 1028-1063): as above
Sequence,Kd [1],Kd [2]
CCAGAAUCAUGUCAGUUCG [KD_2/KD_4 cognate],0.439 nM,
CCAGAAUUGUAGAUAUUCG [KD_3 cognate],,1.34 nM
